Experimental data published in article PMC6070508, “Structural basis for selective inhibition of immunoglobulin E-receptor interactions by an anti-IgE antibody” (Scientific Reports, 2018).
Values joined by “and” are separate entries in the source; they are usually repeats but may differ in a detail not shown here. Identical values can stand only once.

Key:
derCD23 = molecular target: T1, derCD23 (human); assay: SPR; N-terminally His-tagged IgE-Fc captured with an anti-His-tag antibody (Biacore His Capture Kit); derCD23 injected at 10 to 0.156 uM; HBS-P with 5 mM CaCl2, 25 °C; settings: both partners purified
T1 construct: human CD23 (FcεRII), soluble monomeric fragment called derCD23; also called soluble, monomeric CD23 construct; soluble fragment of CD23
T1 sequence (P06734 whole entry, looked up): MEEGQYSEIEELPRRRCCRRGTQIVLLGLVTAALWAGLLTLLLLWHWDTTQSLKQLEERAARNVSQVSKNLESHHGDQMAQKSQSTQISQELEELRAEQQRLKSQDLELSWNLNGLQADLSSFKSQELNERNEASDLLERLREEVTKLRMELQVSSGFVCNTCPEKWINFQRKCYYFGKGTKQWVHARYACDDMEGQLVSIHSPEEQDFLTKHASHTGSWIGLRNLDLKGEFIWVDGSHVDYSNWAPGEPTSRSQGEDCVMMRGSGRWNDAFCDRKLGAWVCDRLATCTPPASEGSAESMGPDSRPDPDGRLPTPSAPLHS

8D6 Fab = molecular target: T2, 8D6 Fab; assay: SPR; Biacore T200; 8D6 Fab amine-coupled to a CM5 chip; His-tagged IgE-Fc injected at 100 nM to 190 pM (2-fold dilutions) in HBS-P (10 mM HEPES pH 7.4, 150 mM NaCl, 0.005% surfactant P20), 30 uL/min; constants from low and intermediate concentrations; settings: both partners purified
T2 construct: In SPR it was amine-coupled to a CM5 chip or injected as analyte; also called recombinant 8D6 Fab; anti-IgE antibody Fab (8D6)
T2 sequence (heavy, as listed by the source, chain 1 of 2): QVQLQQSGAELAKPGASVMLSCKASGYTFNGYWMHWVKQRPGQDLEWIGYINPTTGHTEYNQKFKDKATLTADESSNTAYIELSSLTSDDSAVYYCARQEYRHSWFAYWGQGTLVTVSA
T2 sequence (light, as listed by the source, chain 2 of 2): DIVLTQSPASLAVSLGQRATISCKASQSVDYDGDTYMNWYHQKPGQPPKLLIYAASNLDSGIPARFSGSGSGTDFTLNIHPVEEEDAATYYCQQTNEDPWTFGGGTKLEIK

- Kd (derCD23): 1800 nM and 1700 nM and 1600 nM
- Kd (8D6 Fab): ~0.02 nM
- koff (8D6 Fab): 8e-05 s⁻¹
- kon (8D6 Fab): 5e+06 M⁻¹ s⁻¹
B1: His-tagged IgE-Fc (domain or fragment)
chain: VASRDFTPPTVKILQSSCDGGGHFPPTIQLLCLVSGYTPGTIQITWLEDGQVMDVDLSTASTTQEGELASTQSELTLSQKHWLSDRTYTCQVTYQGHTFEDSTKKCADSNPRGVSAYLSRPSPFDLFIRKSPTITCLVVDLAPSKGTVQLTWSRASGKPVNHSTRKEEKQRNGTLTVTSTLPVGTRDWIEGETYQCRVTHPHLPRALMRSTTKTSGPRAAPEVYAFATPEWPGSRDKRTLACLIQNFMPEDISVQWLHNEVQLPDARHSTTQPRKTKGSGFFVFSRLEVTRAEWEQKDEFICRAVHEAASPSQTVQRAVSVNPGK
modifications: disulfide-linked homodimer; N-glycosylated at Asn394 (high-mannose); N-terminal 6xHis/Xpress tag omitted; C225A, N265Q and N371Q taken as already in the deposited entity; C-terminal end taken from …
